Data reported in paper PMC7336386, “Methylation of MdMYB1 locus mediated by RdDM pathway regulates anthocyanin biosynthesis in apple”.

T1: MdAGO4-1 (Malus domestica? (apple), UniProt A0A498JG28 46-911)
T1 sequence: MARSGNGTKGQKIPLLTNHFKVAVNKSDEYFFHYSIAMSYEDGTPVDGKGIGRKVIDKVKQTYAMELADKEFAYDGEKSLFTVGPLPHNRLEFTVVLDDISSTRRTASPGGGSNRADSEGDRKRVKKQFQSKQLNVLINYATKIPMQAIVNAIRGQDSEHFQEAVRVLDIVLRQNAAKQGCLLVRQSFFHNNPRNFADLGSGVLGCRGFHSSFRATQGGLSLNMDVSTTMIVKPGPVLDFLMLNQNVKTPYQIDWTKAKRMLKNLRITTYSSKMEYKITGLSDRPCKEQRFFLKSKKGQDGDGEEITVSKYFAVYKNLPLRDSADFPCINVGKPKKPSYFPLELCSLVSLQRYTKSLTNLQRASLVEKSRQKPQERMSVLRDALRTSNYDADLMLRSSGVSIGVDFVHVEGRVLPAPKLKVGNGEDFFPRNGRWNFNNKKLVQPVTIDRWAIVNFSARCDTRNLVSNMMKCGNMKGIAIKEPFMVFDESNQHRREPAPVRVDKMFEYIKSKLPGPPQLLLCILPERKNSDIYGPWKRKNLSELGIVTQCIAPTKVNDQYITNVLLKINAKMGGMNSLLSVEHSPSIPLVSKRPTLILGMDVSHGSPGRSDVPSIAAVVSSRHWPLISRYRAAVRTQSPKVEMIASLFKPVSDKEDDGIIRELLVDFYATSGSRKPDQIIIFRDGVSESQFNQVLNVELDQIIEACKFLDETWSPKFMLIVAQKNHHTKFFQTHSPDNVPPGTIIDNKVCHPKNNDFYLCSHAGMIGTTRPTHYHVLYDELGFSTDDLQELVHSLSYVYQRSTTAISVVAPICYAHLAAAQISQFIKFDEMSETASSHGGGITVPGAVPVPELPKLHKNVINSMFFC

T2: MdAGO4-1 without PAZ domain (Malus domestica? (apple), UniProt A0A498JG28 46-274+435-911, internal_change)
T2 sequence: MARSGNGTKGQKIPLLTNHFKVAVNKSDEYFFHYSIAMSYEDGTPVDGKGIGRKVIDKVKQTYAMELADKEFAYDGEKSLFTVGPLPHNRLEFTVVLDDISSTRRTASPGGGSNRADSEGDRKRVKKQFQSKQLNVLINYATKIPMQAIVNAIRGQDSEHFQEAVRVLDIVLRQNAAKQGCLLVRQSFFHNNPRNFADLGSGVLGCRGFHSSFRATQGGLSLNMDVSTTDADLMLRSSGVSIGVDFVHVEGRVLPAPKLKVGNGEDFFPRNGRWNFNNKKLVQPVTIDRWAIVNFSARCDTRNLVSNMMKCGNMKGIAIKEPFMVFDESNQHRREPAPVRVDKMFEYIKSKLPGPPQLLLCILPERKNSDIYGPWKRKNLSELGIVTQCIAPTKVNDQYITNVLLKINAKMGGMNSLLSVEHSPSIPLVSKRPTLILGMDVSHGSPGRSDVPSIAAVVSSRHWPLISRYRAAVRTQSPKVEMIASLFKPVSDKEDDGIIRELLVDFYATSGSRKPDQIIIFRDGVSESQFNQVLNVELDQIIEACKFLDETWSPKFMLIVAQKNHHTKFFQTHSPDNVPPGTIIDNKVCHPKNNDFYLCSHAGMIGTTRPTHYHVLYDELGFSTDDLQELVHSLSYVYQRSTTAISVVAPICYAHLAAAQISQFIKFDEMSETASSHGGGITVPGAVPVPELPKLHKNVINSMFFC


The binders below were run against T1, MdAGO4-1 (assay: EMSA; LightShift Chemiluminescent EMSA Kit (Thermo); buffer, salt, pH and temperature not stated). Settings: protein: recombinant; tags: His (pET32a).

Binder	binding result
2-m1 (probe2 without m1 region) (dsDNA) DNA 1: TGCTTCTGTGGATATCAGACATGCACGTCACTGGCCTT DNA 2: AAGGCCAGTGACGTGCATGTCTGATATCCACAGAAGCA	binds
2-m4 (dsDNA) DNA 1: TGTCAGTGTTTGCTTCTGTGGATATCAGACCTGGCCTT DNA 2: AAGGCCAGGTCTGATATCCACAGAAGCAAACACTGACA	binds
2-m3 (m3 region … not intact) (dsDNA) DNA 1: TGTCAGTGTTTGCTTCTGTGATGCACGTCACTGGCCTT DNA 2: AAGGCCAGTGACGTGCATCACAGAAGCAAACACTGACA	no binding
2-m2 (dsDNA) DNA 1: TGTCAGTGTTGATATCAGACATGCACGTCACTGGCCTT DNA 2: AAGGCCAGTGACGTGCATGTCTGATATCAACACTGACA	binds
MdMYB1 probe2 (dsDNA) DNA 1: TGTCAGTGTTTGCTTCTGTGGATATCAGACATGCACGTCACTGGCCTT DNA 2: AAGGCCAGTGACGTGCATGTCTGATATCCACAGAAGCAAACACTGACA	binds
2-m5 (dsDNA) DNA 1: TGTCAGTGTTTGCTTCTGTGGATATCAGACATGCACGTCA DNA 2: TGACGTGCATGTCTGATATCCACAGAAGCAAACACTGACA	binds

Same assay, conditions: protein: recombinant; tags: His (pET32a); blunt

Binder	binding result
MdFLS probe (dsDNA) DNA 1: GTAAAGGGAGTGTGACCATAATATCAGATACACAAACGTCCAAAGCCC DNA 2: GGGCTTTGGACGTTTGTGTATCTGATATTATGGTCACACTCCCTTTAC	binds
MdGST probe (dsDNA) DNA 1: TTTTTTATTAAATAAAAAAAGATATCATGCGACAAACATTTATTAAATTG DNA 2: CAATTTAATAAATGTTTGTCGCATGATATCTTTTTTTATTTAATAAAAAA	no binding

These binders were tested against T2, MdAGO4-1 without PAZ domain in the same assay as above. Settings: protein: recombinant.

Binder	binding result
MdMYB1 probe2 (dsDNA) DNA 1: TGTCAGTGTTTGCTTCTGTGGATATCAGACATGCACGTCACTGGCCTT DNA 2: AAGGCCAGTGACGTGCATGTCTGATATCCACAGAAGCAAACACTGACA	binds
